Measurements reported in IntAct's records for PubMed 17891150.

B1: Trinucleotide repeat-containing gene 6B protein (Homo sapiens), Q9UPQ9-2 (parent)
chain: MQTNEGEVSEESSSKVEQEDFVMEGHGKTPPPGEESKQEKEQEREEQLMEDKKRKKEDKKKKEATQKVTEQKTKVPEVTKPSLSQPTAASPIGSSPSPPVNGGNNAKRVAVPNGQPPSAARYMPREVPPRFRCQQDHKVLLKRGQPPPPSCMLLGGGAGPPPCTAPGANPNNAQVTGALLQSESGTAPVWSKSTPPAPDNGTSAWGEPNESSPGWGEMDDTGASTTGWGNTPANAPNAMKPNSKSMQDGWGESDGPVTGARHPSWEEEEDGGVWNTTGSQGSASSHNSASWGQGGKKQMKCSLKGGNNDSWMNPLAKQFSNMGLLSQTEDNPSSKMDLSVGSLSDKKFDVDKRAMNLGDFNDIMRKDRSGFRPPNSKDMGTTDSGPYFEKGGSHGLFGNSTAQSRGLHTPVQPLNSSPSLRAQVPPQFISPQVSASMLKQFPNSGLSPGLFNVGPQLSPQQIAMLSQLPQIPQFQLACQLLLQQQQQQQLLQNQRKISQAVRQQQEQQLARMVSALQQQQQQQQRQPGMKHSPSHPVGPKPHLDNMVPNALNVGLPDLQTKGPIPGYGSGFSSGGMDYGMVGGKEAGTESRFKQWTSMMEGLPSVATQEANMHKNGAIVAPGKTRGGSPYNQFDIIPGDTLGGHTGPAGDSWLPAKSPPTNKIGSKSSNASWPPEFQPGVPWKGIQNIDPESDPYVTPGSVLGGTATSPIVDTDHQLLRDNTTGSNSSLNTSLPSPGAWPYSASDNSFTNVHSTSAKFPDYKSTWSPDPIGHNPTHLSNKMWKNHISSRNTTPLPRPPPGLTNPKPSSPWSSTAPRSVRGWGTQDSRLASASTWSDGGSVRPSYWLVLHNLTPQIDGSTLRTICMQHGPLLTFHLNLTQGTALIRYSTKQEAAKAQTALHMCVLGNTTILAEFATDDEVSRFLAQAQPPTPAATPSAPAAGWQSLETGQNQSDPVGPALNLFGGSTGLGQWSSSAGGSSGADLAGASLWGPPNYSSSLWGVPTVEDPHRMGSPAPLLPGDLLGGGSDSI

Variants of: B1
Conditions: with ago2_human AGO2, Q9UKV8
Chain of ago2_human AGO2, Q9UKV8 (Q9UKV8 whole entry): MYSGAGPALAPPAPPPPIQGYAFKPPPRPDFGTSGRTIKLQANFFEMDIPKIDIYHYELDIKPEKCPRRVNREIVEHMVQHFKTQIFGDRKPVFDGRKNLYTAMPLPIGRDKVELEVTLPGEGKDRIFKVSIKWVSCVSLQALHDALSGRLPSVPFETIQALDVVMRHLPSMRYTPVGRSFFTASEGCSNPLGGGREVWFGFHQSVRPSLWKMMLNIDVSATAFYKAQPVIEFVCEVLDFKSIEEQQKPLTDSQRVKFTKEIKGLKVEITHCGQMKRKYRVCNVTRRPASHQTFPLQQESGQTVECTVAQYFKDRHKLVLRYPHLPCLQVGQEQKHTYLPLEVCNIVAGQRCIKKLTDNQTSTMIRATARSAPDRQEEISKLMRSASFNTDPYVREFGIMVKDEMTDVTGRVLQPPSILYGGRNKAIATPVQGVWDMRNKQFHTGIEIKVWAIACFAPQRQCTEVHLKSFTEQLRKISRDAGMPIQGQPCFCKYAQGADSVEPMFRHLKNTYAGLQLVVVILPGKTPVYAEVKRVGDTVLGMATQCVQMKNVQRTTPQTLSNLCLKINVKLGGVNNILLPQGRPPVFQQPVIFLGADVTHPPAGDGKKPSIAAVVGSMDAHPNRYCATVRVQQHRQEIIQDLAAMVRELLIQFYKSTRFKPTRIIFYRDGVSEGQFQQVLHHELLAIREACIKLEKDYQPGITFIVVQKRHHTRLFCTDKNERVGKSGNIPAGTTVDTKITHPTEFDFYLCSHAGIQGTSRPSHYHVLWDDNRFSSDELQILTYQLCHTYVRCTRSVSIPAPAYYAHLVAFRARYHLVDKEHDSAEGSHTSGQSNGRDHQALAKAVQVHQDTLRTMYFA

Effect of a mutation on the interaction, disrupting interaction:
W205F
W215F
W205A;W215A
